Results on one molecule are retold here after PMC9784564 (2022).

Usually IC50 stands for the concentration that gives 50% inhibition. A low value points to inhibition by little substance.

The target in this experiment is CoV-2-RBD of the SARS-CoV-2 Inhibitor Screening Kit (SARS-CoV-2, UniProt P0DTC2 319-541). Nature of the experiment: ELISA. In general terms: An ELISA detects its analyte on a solid surface through an enzyme-linked reagent.

B1: CB79 (antibody, V domains shown)
VH: QVHLVQSGAEVKKPGASVKVSCKASGYTFTDYYMHWVRQAPGQGLEWMGRINPNSGGTNYPETLQGRVTMTTDTSTSTAYLEVRSLTPDDTAVYYCARVPYCSSTSCYSDWYFDLWGQGTLVTVSS
VL: DIVLTQSPLSLPVTPGETASISCRSSQSILDSDDGNTYLDWYLQKPGQSPQLLIYSLSYRASGVPDRFSASGSGTDFTLKISGVEAEDVGVYYCMQRIEFPLTFGGGTKLEIK
Consider B1, for which the IC50 is 0.14 µg/mL.
